From patent US8129349B2, “Treatment of disease by inducing cell apoptosis” (The Regents of the University of California, priority 2000, dated 2012)

System: hepatic stellate cells
Test: Apoptosis of activated stellate cells transfected with C/EBPβ constructs, annexin-V-PE binding
Type: cell-based, mouse
Settings: apoptosis induced by dominant negative MEKK1, IκBα or RSK mutants or by lactacystin
Text: FIG. 1 provides data showing that phosphorylation of C/EBPβ on Thr^217 is required for hepatic stellate cell survival. Panel A provides phosphopeptide maps of in vivo labeled endogenous C/EBPβ in day-4 quiescent and activated primary mouse stellate cells cultured from the time of isolation on EHS or collagen type I matrix, respectively. The arrow indicates the peptide containing Phospho-Thr^217 in activated cells. […] Panel B provides phosphopeptide maps of in vitro labeled C/EPBβ. Active p90RSK phosphorylated C/EPBβ, but not C/EBPβ-Ala^217 on Thr^217 in vitro (arrowheads). Panel C provides results for cells cultured on collagen type I transfected with MSV-C/EBPβ antisense (AS), MSV-C/EBPβ sense (S), or MSV-C/EBPβ-Ala^217 together with CMV-GFP (green fluorescent protein) and p90RSK (1 μg each), as indicated in the Figure. Four hours after transfection, annexin-V-PE binding to plasma membranes was determined. The values presented are the percentage of transfected cells (green) that were annexin-V-PE (+) (red) (P<0.05 for C/EBPβ AS, and C/EBPβ-Ala^217). Panel D provides results for cells transfected as in […] with vectors expressing dominant negative mutants for MEKK1, IκBα, or p90RSK, or treated with the proteasome inhibitor lactacystin (10 μM) (closed bars), and co-transfected with MSV-C/EBPβ-Glu^217 (1 μg each) (open bars) as indicated. Annexin-V-PE binding was determined as described for Panel A (P<0.05 for C/EBPβ-Glu^217). Panel E provides results for cells transfected as described for Panel C, with a dominant-negative p90RSK, treated with FAS (100 nM for 6 hours) or cultured in a serum-free medium for 6 hours (closed bars), and co-transfected with MSV-C/EBPβ-Glu^217 (1 μg each) (open bars), as indicated. Cell death was determined by nuclear staining with Hoechst 33342 (P<0.05 for C/EBPβ-Glu^217 in RSK mut and FAS-treated cells).
FIG. 4 provides results showing that C/EBPβ PThr^217 associates with procaspases 1 and 8, and inhibits their activation. Panel A provides schematic representations of C/EBPβ peptides. The activation (dotted bars), DNA binding (solid bars) and dimerization (hatched bars) domains are shown. […] Panel C provides results showing that C/EBPβ and procaspase 8 were detected in activated stellate cells isolated from C/EBPβ^+/+ mice by confocal microscopy using specific antibodies (Santa Cruz Biotechnology). Control C/EBPβ^−/− stellate cells were negative for C/EBPβ, positive for procaspase 8, and apoptotic. Panel D provides immunoblot results for MSV vectors expressing C/EBPβ-HA (hemagglutinin protein) peptides (0.3 μg) transfected into activated stellate cells. The expressed peptides were immunoprecipitated with anti-HA antibodies. C/EBPβ-PThr^217 was detected using a specific antibody, only in cells expressing wild-type C/EBPβ. […] RSK was associated with all C/EBPβ peptides. Neither C/EBPβ nor procaspases 1 and 8 were detected in C/EBPβ immunoprecipitates from cells expressing C/EBPβ AS. Reciprocal immunoprecipitations of procaspases and RSK confirmed these associations.
Adult male Sprague-Dawley rats and adult male C/EBPβ^+/+ and C/EBPβ^−/− (Screpanti et al., supra; and Buck et al., (1999), supra), C/EBPβ-Ala^217 and C/EBPβ-Asp^105 transgenic mice were used for the isolation of primary hepatic stellate cells (Houglum et al., supra). Primary hepatic stellate cells were isolated by collagenase/pronase perfusion and purified by a single step density Nycodenz gradient (Accurate Chemical & Scientific) as known in the art (See, Lee et al., (1995), supra). Cells were plated on type I collagen matrix (Becton Dickinson) or EHS matrix (Matrigel, Collaborative Biomedical Products). Cells were cultured with 10% fetal calf serum/10% fetal bovine serum and transfected with lipofectamine (GIBCO) for DNA vectors or with the Chariot reagent (Active Motif) for peptides (10 μM) as known in the art (See, Houglum et al., supra; and Morris et al., J. Biol. Chem., 274:24942-24946 (1999)). […]

B1: C/EBPβ-Glu^217: modified murine C/EBPβ with mutation of Thr^217 to glutamic acid (SEQ ID NO:4), phosphorylation mimic (protein, listed as Mus musculus)
chain: MHRLLAWDAACLPPPPAAFRPMEVANFYYEPDCLAYGAKAARAAPRAPAAEPAIGEHERAIDFSPYLEPLAPAADFAAPAPAHHDFLSDLFADDYGAKPSKKPADYGYVSLGRAGAKAAPPACFPPPPPAALKAEPGFEPADCKRADDAPAMAAGFPFALRAYLGYQATPSGSSGSLSTSSSSSPPGTPSPADAKAAPAACFAGPPAAPAKAKAKKZVDKLSDEYKMRRERNNIAVRKSRDKAKMRNLETQHKVLELTAENERLQKKVEQLSRELSTLRNLFKQLPEPLLASAGHC
Rescue from induced apoptosis by expressed construct: partially inhibited
